{
  "source": "paper PMC11532494",
  "about": "(Nature Communications, 2024)",
  "target": "LpApaH (3) (Legionella pneumophila, UniProt A0A2S6EWV0)",
  "assay_type": "biochemical",
  "note": "Several values for one entry are separate records, joined by “and”; a condition that tells them apart may be missing. Equal values may be shown once. No end group written: not given here. *: point of attachment. AMC = Cc1cc(=O)oc2cc(N*)ccc12",
  "data": [
    {"substance": "QPKKdec (QPKK-{AMC}; not fully specified (residue 4); printed as QPKKdec; also: decanoyl-lysine (which Lys not given here); UniProt P04637 317-320, looked up, fragment)", "values": [
      {"measurement": "[AMC]", "value": "154.30 nM and 187.50 nM"}
    ]},
    {"substance": "QPKKmyr (QPKK-{AMC}; not fully specified (residue 4); printed as QPKKmyr; also: myristoyl-lysine (which Lys not given here); UniProt P04637 317-320, looked up, fragment)", "values": [
      {"measurement": "[AMC]", "value": "400.39 nM and 496.09 nM"}
    ]},
    {"substance": "QPKKoct (QPKK-{AMC}; not fully specified (residue 4); printed as QPKKoct; also: octanoyl-lysine (which Lys not given here); UniProt P04637 317-320, looked up, fragment)", "values": [
      {"measurement": "[AMC]", "value": "53.71 nM and 69.34 nM"}
    ]}
  ]
}
